In patent publication US20250147035A1, “METHODS FOR DETECTION OF POST-TRANSLATIONAL MODIFICATIONS” (Quantum-Si Incorporated, priority 2023, published 2025):
Read-outs that look alike come from different tables or passages of the source. Primed or numbered codes have the meaning given here. Where no end group is shown, it is not given here. [ ]: non-standard residue; d: D form. pT = C[C@@H](OP(=O)(O)O)[C@H](N)C(=O)O; pS = N[C@@H](COP(=O)(O)O)C(=O)O; Biotin′ = not defined here

Key:
p…-Biotin [1] = biological target: T1, p…-Biotin; assay: Octet (BLI), fixed reagent concentration
T1 sequence (peptide, phosphothreonine at 1; C-terminal Biotin): TAKLDEESILKQ

…-Biotin [2] = biological target: T2, …-Biotin; assay: Octet (BLI), fixed reagent concentration
T2 sequence (peptide, C-terminal Biotin): SAKLDEESILKQ

[3] = biological target: pT-…; assay: Octet (BLI), sensors coated with peptide
EFLN-pT-RFYK [4] = assay: Octet (BLI), sensors coated with peptide
pSAKLDEESILKQ-Biotin [5] = assay: Octet binding assay of PTM-specific affinity reagent candidates, pSA peptide; conditions: fixed concentration of reagent
From the text: (§1) This Example characterizes an exemplary phosphorylated threonine recognizer for use in methods of the disclosure.

SAKLDEESILKQ-Biotin = assay: Octet binding assay of PTM-specific affinity reagent candidates, SA control peptide; parameters: unit not given here; conditions: fixed concentration of reagent
From the text: as §1

p…-Biotin [6] = biological target: T3, p…-Biotin; assay: Octet (BLI), fixed reagent concentration; remark: listed apart in the source
T3 sequence (peptide, phosphoserine at 1; C-terminal Biotin): SAKLDEESILKQ

QRFpYLAYPDDD-FITC = assay: bulk fluorescence polarization, 0.5 µM PM49, FITC-labeled peptide
[7] = biological target: p…; assay: Octet (BLI), sensors coated with peptide
pT-[…] = assay: Octet binding platform, peptide-coated sensors dipped in PM12; conditions: phospho-threonine at the N-terminus
From the text: (§2) Next, control peptides ([…] and […]) were compared to model peptides (EFLN-pT-RFYK and p[…]) to evaluate phospho-threonine detection in different peptide motifs using a post-translational modification-specific (PTM-specific) affinity reagent that binds to phospho-threonine (PM12). Using the Octet binding platform, Octet sensors were coated with the peptide of interest and dipped in buffer containing the PTM-specific affinity reagent. […] In contrast, no shift was detected with the corresponding control peptides having unphosphorylated threonine (FIGS. 14A-14B).

EFLN-pT-RFYK [8] = assay: as above; conditions: phospho-threonine in the middle of the peptide
From the text: as §2

[9] = system: pT-ENR and pT-TDY peptides; assay: Two-stage chip run, phospho-threonine peptides spiked in the CDNF libraries; format: binding
Protocol: (§3) Using the two-stage recognition run format described above, PTM recognition of phospho-threonine in various peptide motifs was evaluated. Phospho-threonine detection by the PTM-specific affinity reagent in different peptide motifs was evaluated with unphosphorylated threonine ([…], […], […], […], and […]) and compared to their phosphorylated threonine counterparts (QRF-pT-LAYPDDD, RFL-pT-LAYPDDD, FLA-pT-LAYPDDD, LAQ-PT-LAYPDDD, and AQR-pT-LAYPDDD). […] The PTM-specific affinity reagent was also evaluated for its ability to detect phospho-threonine residues at different positions in peptides. […] Similar results were obtained by performing the same two-stage chip run on phospho-threonine peptides spiked in the CDNF libraries (FIGS. 19A-19H).

p[…]-Biotin [10] = assay: Octet binding assay of PTM-specific affinity reagent candidates, pTQR peptide; conditions: fixed concentration of reagent
Protocol: (§4) This Example characterizes an exemplary phosphorylated threonine recognizer for use in methods of the disclosure. Octet binding assays at a fixed concentration of PTM-specific affinity reagent candidates were evaluated for binding with phospho-threonine, phospho-serine containing peptides (p[…]-Biotin; p[…]-Biotin; p[…]-Biotin), and control peptides without modifications ([…]-Biotin; […]-Biotin).

[11] = system: phospho-serine (p[…], p[…]); assay: Polarization and Octet binding assays of PM12; conditions: PM12 fixed concentration
Protocol: (§5) FIGS. 21A-21E provide data from polarization binding assays using a fixed concentration of PM12 with 2 μM and FITC-labeled peptides (p[…], p[…], p[…], QRFp[…], p[…]).
as §4

[…] = Octet binding platform, peptide-coated sensors dipped in PM12, control peptide; conditions: unphosphorylated threonine
From the text: as §2

EFLNTRFY = assay: as above; conditions: unphosphorylated threonine
From the text: as §2

pSAKLDEESILKQ-Biotin [12] = biological target: T4, pSAKLDEESILKQ-Biotin; assay: Octet (BLI), fixed reagent concentration;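 also: octet binding of candidate PTM-specific affinity reagents, each at one fixed concentration, to biotinylated phospho-Thr or phospho-Ser peptides, with unmodified biotinylated peptides serving as controls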
T4 peptide: [pS]AKLDEESILKQ-{Biotin′}
Protocol: (§9) Octet binding assays at a fixed concentration of PTM-specific affinity reagent candidates were evaluated for binding with phospho-threonine, phospho-serine containing peptides (p[sequence]-Biotin; p[sequence]-Biotin; p[sequence]-Biotin), and control peptides without modifications ([sequence]-Biotin; [sequence]-Biotin).

…-Biotin [13] = biological target: T5, …-Biotin; assay: Octet (BLI), fixed reagent concentration; remark: listed apart in the source
T5 sequence (peptide, C-terminal Biotin): TAKLDEESILKQ

[14] = system: phospho-threonine peptides (p[…], QRFpTLAYPDDD, p[…]); format: binding
[15] = system: phospho-threonine peptides; assay: Two-stage on-chip recognition run, phospho-threonine peptides; format: binding
Protocol: (§6) The phospho-threonine-specific affinity reagent, PM12, was evaluated for its ability to bind phospho-threonine residues residing in a range of motifs and at different positions in peptides (FIG. 15). To evaluate the PTM-specific affinity reagent, two-stage on-chip recognition runs were performed as described in Example 3. […] Peptide sequencing following PTM detection was not affected for either peptide (FIGS. 16A-16C).
(§7) This was followed by a second stage in which reagents for peptide sequencing (amino acid recognition molecules, cleaving reagents) were added to the chip to determine sequence information for the single peptide molecules. The plots shown at the top of FIGS. 16B and 16C are stacked plots showing the number of apertures (y-axis) with recognition taking place on the chip over the course of two-stage recognition runs (x-axis) performed in parallel with peptides having unphosphorylated threonine (FIG. 16B) or phosphorylated threonine (FIG. 16C). Each plot shown at the bottom of FIGS. 16B and 16C is an example binding trace from a single aperture on the chip.
as §3

p[…]-Biotin [16] = assay: Octet binding assay of PTM-specific affinity reagent candidates, pTA peptide; conditions: fixed concentration of reagent
From the text: as §1

[17] = system: unphosphorylated threonine peptides; assay: Two-stage on-chip recognition run, unphosphorylated threonine peptides; format: binding
Protocol: as §6, §7, §3

[…]-Biotin = Octet binding assay of PTM-specific affinity reagent candidates, TA control peptide; conditions: fixed concentration of reagent
From the text: as §1

phospho-tyrosine (p[…]) = assay: Polarization binding assays of PM12; conditions: FITC-labeled peptide, PM12 2 μM
Protocol: as §5, §4

LAQ-pY-LAYPDDDK = assay: On-chip fluorescence signature of PTM-specific affinity reagent binding before sequencing (Example 1); conditions: polypeptide with PTM, collected for 30 minutes
Protocol: (§8) A control polypeptide ([…]) and a model polypeptide comprising a phospho-tyrosine (LAQ-pY-[…]) were tested in this Example. Each polypeptide was first immobilized onto independent surfaces of a chip. A post-translational modification-specific (PTM-specific) affinity reagent that binds to phospho-tyrosine (PS33 (SEQ ID NO: 35)) and comprised a fluorescent label was then added to the chip and allowed to contact the polypeptides. […] The chip was then washed to remove the PTM-specific affinity reagent. A protein sequencing analysis of the polypeptides was then performed. A mixture of labeled terminal amino acid recognition molecules was added to the chip and allowed to incubate for 15 minutes. After 15 minutes, a mixture of cleaving reagents (a mixture of aminopeptidases) was added to the chip. During these steps, a series of signal pulses indicative of association of the one or more terminal amino acid recognition molecules with successive amino acids exposed at a terminus of each polypeptide were collected while each polypeptide was being degraded.

LAQYLAYPDDDK = assay: On-chip fluorescence signature of PTM-specific affinity reagent binding before sequencing (Example 1), control polypeptide; conditions: polypeptide without PTM, collected for 30 minutes
Protocol: as §8

TAKLDEESILKQ-Biotin = biological target: T6, TAKLDEESILKQ-Biotin; assay: Octet (BLI), fixed reagent concentration;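 also: octet binding of candidate PTM-specific affinity reagents, each at one fixed concentration, to biotinylated phospho-Thr or phospho-Ser peptides, with unmodified biotinylated peptides serving as controls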
T6 peptide: TAKLDEESILKQ-{Biotin′}
Protocol: as §9

pTAKLDEESILKQ-Biotin = biological target: T7, pTAKLDEESILKQ-Biotin; assay: Octet (BLI), fixed reagent concentration;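 also: octet binding of candidate PTM-specific affinity reagents, each at one fixed concentration, to biotinylated phospho-Thr or phospho-Ser peptides, with unmodified biotinylated peptides serving as controls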
T7 peptide: [pT]AKLDEESILKQ-{Biotin′}
Protocol: as §9

p…-Biotin [18] = assay: Octet (BLI), fixed reagent concentration; remark: listed apart in the source

PM12 (Mycobacterium tuberculosis/FhaA) (from UniProt P71590 430-527)
Octet binding assay response (p…-Biotin [1]): 7.1 | Octet binding assay response (…-Biotin [2]): 0.6 | Octet shift [3]: 4.4 | Octet shift (EFLN-pT-RFYK [4]): 6.8

PM06: Human/14-3-3 protein zeta/delta, SEQ ID NO: 6
Octet binding assay response, pSA (pSAKLDEESILKQ-Biotin [5]): 0.1 | Octet binding assay response, SA (SAKLDEESILKQ-Biotin; SA = SAKLDEESILKQ-Biotin (control)): 0.1

PM06 (Human/14-3-3 protein zeta/delta) (from UniProt P63103 1-245)
Octet binding assay response (p…-Biotin [6]): 0.1 | Octet binding assay response (…-Biotin [2]): 0.1

PM49 (ABCAM® Biotin Anti-Phosphotyrosine antibody [EPR16871])
fold tighter binding affinity against an N-terminal phospho-tyrosine (QRFpYLAYPDDD-FITC): 2 fold | Octet shift [7]: 10.2

B1: PM12 (Mycobacterium tuberculosis/FhaA) (other)
chain: MGSAGTSVTLQLDDGSGRTYQLREGSNIIGRGQDAQFRLPDTGVSRRHLEIRWDGQVALLADLNSTNGTTVNNAPVQEWQLADGDVIRLGHSEIIVRMH
Octet shift (pT-[…]): 4.4 | Octet shift (EFLN-pT-RFYK [8]): 6.8 | discrimination of phosphorylated and unphosphorylated CDNF peptides ([9]; in the same run): able to discriminate between phosphorylated and unphosphorylated CDNF peptides | binding to phospho-threonine CDNF peptides ([9]; peptide traces): binding to pT-ENR and pT-TDY peptides | Octet binding assay response, pTQR (p[…]-Biotin [10]): 7.1 | binding for phospho-serine [11]: low binding | Octet shift ([…]): no shift | Octet shift (EFLNTRFY): no shift | Octet binding assay response (pSAKLDEESILKQ-Biotin [12]): 0.7 | Octet binding assay response (p…-Biotin [1]): 6.9 | Octet binding assay response (…-Biotin [13]): 0.6 | specificity for phospho-threonine ([14]; FITC-labeled peptides, PM12 2 μM): high specificity for phospho-threonine | preference for phospho-threonine location in the peptide ([14]; internal vs N-terminal phospho-threonines, […]): slight preference for internal phospho-threonines | Octet binding assay response, SA (SAKLDEESILKQ-Biotin; SA = […]-Biotin (control)): 0.6 | phospho-threonine detection in different peptide motifs ([15]; QRF-pT-, RFL-pT-, FLA-pT-, LAQ-pT-, AQR-pT-LAYPDDD, first 30 minutes): able to detect phospho-threonine in all five peptide motifs tested | pulsing in the first 30 minutes ([15]; model peptide RFL-pT-LAYPDDD): fast pulsing | recognition of phospho-threonine at different positions in peptides ([15]; pulsing in the first 30 minutes): recognized phospho-threonine residues at the N-terminus, the C-terminus, and in the middle of peptides | Octet binding assay response, pTA (p[…]-Biotin [16]): 6.9 | signal for unphosphorylated threonine residues at corresponding positions ([17]; N-terminus, C-terminus, middle): no signal was observed | signal with unphosphorylated peptide motifs ([17]; QRFT-, RFLT-, FLAT-, LAQT-, AQRT-LAYPDDD): no signal was detected | pulsing in the first 30 minutes ([17]; control peptide […]): no pulsing | Octet binding assay response, TA ([…]-Biotin): 0.6 | binding for phospho-tyrosine (phospho-tyrosine (p[…])): low binding

B2: PS33: SH domanin Fyn Triple mutant, SEQ ID NO: 35; PTM-specific affinity reagent that specifically binds to phospho-tyrosine (protein)
chain: MGAMDSIQAEEWYFGKLGRKDAERQLLSFGNPRGTFLIRESETVKGAYALSIRDWDDMKGDHVKHYLIRKLDNGGYYITTRAQFETLQQLVQHYSERAAGLSSRLVVPSHK
fluorescence signature representative of binding interaction(s) (LAQ-pY-LAYPDDDK): strong fluorescence signature | fluorescence signature representative of binding interaction(s) (LAQYLAYPDDDK): no fluorescence signature

B3: PM18 (Human/MINT) (other)
chain: MVDMVQLLKKYPIVWQGLLALKNDTAAVQLHFVSGNNVLAHRSLPLSEGGPPLRIAQRMRLEATQLEGVARRMTVETDYCLLLALPCGRDQEDVVSQTESLKAAFITYLQAKQAAGIINVPNPGSNQPAYVLQIFPPCEFSESHLSRLAPDLLASISNISPHLMIVIASV
Octet binding assay response, pTQR (p[…]-Biotin [10]): 1.6 | Octet binding assay response (TAKLDEESILKQ-Biotin): 0.6 | Octet binding assay response (p…-Biotin [1]; pTA phosphothreonine peptide): 0.7 | Octet binding assay response (p…-Biotin [1]; pTQR phosphothreonine peptide): 1.6 | Octet binding assay response (p…-Biotin [6]): 0.6 | Octet binding assay response (…-Biotin [2]): 0.9 | Octet binding assay response, SA (SAKLDEESILKQ-Biotin; SA = […]-Biotin (control)): 0.9 | Octet binding assay response, pTA (p[…]-Biotin [16]): 0.7

B4: PM05 (Human/14-3-3 protein beta/alpha) (other)
chain: MTMDKSELVQKAKLAEQAERYDDMAAAMKAVTEQGHELSNEERNLLSVAYKNVVGARRSSWRVISSIEQKTERNEKKQQMGKEYREKIEAELQDICNDVLELLDKYLIPNATQPESKVFYLKMKGDYFRYLSEVASGDNKQTTVSNSQQAYQEAFEISKKEMQPTHPIRLGLALNFSVFYYEILNSPEKACSLAKTAFDEAIAELDTLNEESYKDSTLIMQLLRDNLTLWTSENQGDEGDAGEGEN
Octet binding assay response (pSAKLDEESILKQ-Biotin [12]): 0.2 | Octet binding assay response (pTAKLDEESILKQ-Biotin): 0.2 | Octet binding assay response (TAKLDEESILKQ-Biotin): 0.2 | Octet binding assay response (…-Biotin [2]): 0.2 | Octet binding assay response (p…-Biotin [18]): 0.2
